This is an account of results in PMC2711566.

One assay concerns the target GST. The experiment in a line: native gel or EMSA.
Assay [1] concerns the target T1, recombinant TIP47 (human), O60664.
T1 chain: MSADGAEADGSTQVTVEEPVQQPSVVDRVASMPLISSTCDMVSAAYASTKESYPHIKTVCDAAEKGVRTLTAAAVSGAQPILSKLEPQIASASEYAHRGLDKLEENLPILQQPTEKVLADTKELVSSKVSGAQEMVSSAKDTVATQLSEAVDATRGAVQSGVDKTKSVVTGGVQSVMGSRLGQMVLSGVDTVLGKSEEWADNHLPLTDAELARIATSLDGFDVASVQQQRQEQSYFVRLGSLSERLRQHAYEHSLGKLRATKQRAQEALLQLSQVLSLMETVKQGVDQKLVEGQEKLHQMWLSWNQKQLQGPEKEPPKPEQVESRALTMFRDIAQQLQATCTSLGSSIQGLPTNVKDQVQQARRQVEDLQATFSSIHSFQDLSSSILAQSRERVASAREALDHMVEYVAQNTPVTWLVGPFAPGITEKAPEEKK
The experiment in a line: SEC. Conditions: remark: other sources report otherwise.

By stoichiometry N is commonly meant a count of units in the complex or per binding partner. In turn, GST (natural protein) registered a stoichiometry N in the assay with GST of 2.

B1: recombinant TIP47, O60664 1-434 (natural protein)
chain: T1 chain
As to B1, the stoichiometry N in assay [1] amounted to 3.
